PMC10846947 (Journal of Alzheimer's disease : JAD, 2022)

Legend:
[1] = mouse, in vivo
[2] = mouse, in vivo; remark: listed apart in the source
[3] = mouse, in vivo; remark: listed apart in the source
[4] = mouse, in vivo; remark: listed apart in the source
[5] = mouse, in vivo, iv

Substance	increase in plasma AUC at 52 weeks [1]	plasma AUC of 125I-Aβ40 relative to 125I-Aβ42 [1]	decrease in PS values in various brain regions at 52 weeks [2]	PS product in the whole brain, WT versus APP/PS1 mice [3]	PS product in the whole brain, lower in APP/PS1 mice compared to WT mice [3]	decrease in PS values at 52 weeks [3]	increase in PS values in various brain regions at 52 weeks [2]	decrease in PS values at various brain regions at 24 weeks [3]	decrease in PS products at various brain regions at 24 weeks compared to 8 weeks [4]	decrease in brain influx clearance (Ki) at 104 weeks compared to 12 weeks [5]
^125I-Aβ40: custom synthesized amyloid-β 40 peptide, soluble form, radiolabeled with 125I by the chloramine-T procedure	~ 7 fold	~ 12 fold	~ 4 fold	no differences	~ 1.5 fold	~ 1.5 fold				
^125I-Aβ42: custom synthesized amyloid-β 42 peptide, soluble form, radiolabeled with 125I by the chloramine-T procedure				no significant differences			~ 1.5 fold	~ 1.5 fold		
^125I-insulin: human insulin (Sigma-Aldrich) radiolabeled with 125I by the chloramine-T procedure									~ 5 fold	~ 2 fold
